Test results taken from patent US20220154204.

Target: T1, GST-OST1/SnRK2.6, Q940H6
T1 chain: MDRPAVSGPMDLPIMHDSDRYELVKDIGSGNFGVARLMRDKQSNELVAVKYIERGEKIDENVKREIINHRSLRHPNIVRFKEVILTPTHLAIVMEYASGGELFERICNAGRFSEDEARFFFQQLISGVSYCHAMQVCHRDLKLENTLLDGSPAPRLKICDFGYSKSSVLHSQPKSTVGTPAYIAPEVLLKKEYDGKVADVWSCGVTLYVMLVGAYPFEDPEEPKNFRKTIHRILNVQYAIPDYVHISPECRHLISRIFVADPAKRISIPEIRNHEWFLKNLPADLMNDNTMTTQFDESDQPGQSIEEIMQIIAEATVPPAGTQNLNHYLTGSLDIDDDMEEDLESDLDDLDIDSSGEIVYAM

B1: MPK12 (protein)
chain: MSGESSSGSTEHCIKVVPTHGGRYVQYNVYGQLFEVSRKYVPPIRPIGRGACGIVCAAVNSVTGEKVAIKKIGNAFDNIIDAKRTLREIKLLRHMDHENVITIKDIVRPPQRDIFNDVYIVYELMDTDLQRILRSNQTLTSDQCRFLVYQLLRGLKYVHSANILHRDLRPSNVLLNSKNELKIGDFGLARTTSDTDFMTEYVVTRWYRAPELLLNCSEYTAAIDIWSVGCILGEIMTGQPLFPGKDYVHQLRLITELVGSPDNSSLGFLRSDNARRYVRQLPRYPKQQFAARFPKMPTTAIDLLERMLVFDPNRRISVDEALGHAYLSPHHDVAKEPVCSTPFSFDFEHPSCTEEHIKELIYKESVKFNPDH
  in vitro phosphorylation assay with 32P-ATP after dephosphorylation of OST1: did not phosphorylate OST1/SnRK2.6 after dephosphorylation
